This assay concerns the target CD8 (protein not named in Table 16).

B1: CD8 binder 97 (VHH) (VHH)
VHH: QVQLVESGGGLVQAGGSLRLSCAASGRTFSGYVMGWFRQAPGKQRKFVAAISRGGLSTSYADSVKGRFTISRDNAKNTVFLQMNTLKPEDTAVYYCAADRSDLYEITAASNIDSWGQGTLVTVSS
B1 registered a Highest Response (nm) of 0.465 nm, a Kd of 5.3 nM, an off-rate (koff) of 0.000272 s⁻¹ and an on-rate constant (kon) of 51400 M⁻¹ s⁻¹.

(Values after patent US20260265780A1.)
